Starred links: 1 amine or outer side, 2 acyl side, 3 side chain; linkers in the order of their positions; H or OH if unused. Non-standard residues stand in square brackets, D forms with d. Groups on a side chain read outwards from the residue. Primed or numbered codes have the meaning given here. No end group written: not given here. *: point of attachment. γGlu = O=C(O)[C@H](CCC(=O)[*:2])N[*:1]; Stearoyl = CCCCCCCCCCCCCCCCCC(=O)*; αMeF = C[C@](N)(Cc1ccccc1)C(=O)O; αMeK = C[C@](N)(CCCCN)C(=O)O; Lauroyl = CCCCCCCCCCCC(=O)*; αMeS = C[C@](N)(CO)C(=O)O; PEG2′ = not defined here; Aib = CC(C)(N)C(=O)O; Ahx = NCCCCCC(=O)O
T1: glucose-dependent insulinotropic peptide (gastric inhibitory polypeptide) receptor (GIPR) (human, UniProt P48546 22-466)
T1 sequence (looked up): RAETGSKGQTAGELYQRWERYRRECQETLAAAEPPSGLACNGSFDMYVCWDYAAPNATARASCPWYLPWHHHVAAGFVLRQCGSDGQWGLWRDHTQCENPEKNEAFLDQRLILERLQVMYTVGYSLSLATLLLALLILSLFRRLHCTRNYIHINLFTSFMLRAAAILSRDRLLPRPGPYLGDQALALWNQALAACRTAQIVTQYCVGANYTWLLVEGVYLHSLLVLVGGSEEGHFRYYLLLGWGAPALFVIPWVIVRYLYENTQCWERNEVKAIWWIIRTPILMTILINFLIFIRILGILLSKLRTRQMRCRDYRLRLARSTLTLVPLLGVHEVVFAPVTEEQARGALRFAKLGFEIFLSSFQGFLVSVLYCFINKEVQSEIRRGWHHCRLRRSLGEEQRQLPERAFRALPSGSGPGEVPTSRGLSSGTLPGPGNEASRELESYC


Columns and labels:
Assay in all cases: cell-based or functional assay
[1] = molecular target: glucagon receptor (GCGR) (human, UniProt P47871 26-477)
[2] = molecular target: GLP-1 receptor (GLP-1R) (human, UniProt P43220 24-463)
[3] = molecular target: T1, glucose-dependent insulinotropic …

Chain of glucagon receptor (GCGR) (P47871 26-477): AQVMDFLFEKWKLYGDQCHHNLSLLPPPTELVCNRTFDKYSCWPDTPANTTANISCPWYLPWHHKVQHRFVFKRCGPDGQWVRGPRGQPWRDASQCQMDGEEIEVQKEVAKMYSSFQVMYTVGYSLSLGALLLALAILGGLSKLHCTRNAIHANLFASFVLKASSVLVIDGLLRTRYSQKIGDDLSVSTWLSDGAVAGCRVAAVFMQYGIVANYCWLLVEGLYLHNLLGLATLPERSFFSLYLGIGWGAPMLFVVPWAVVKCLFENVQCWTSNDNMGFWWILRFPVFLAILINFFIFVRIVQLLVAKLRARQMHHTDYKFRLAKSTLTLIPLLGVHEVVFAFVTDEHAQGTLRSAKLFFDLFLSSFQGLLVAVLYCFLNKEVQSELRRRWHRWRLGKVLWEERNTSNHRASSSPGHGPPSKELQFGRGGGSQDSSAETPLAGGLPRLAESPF

| Primary assay EC50 (cAMP), Gluc-R, first run [1] [nM] | Primary assay EC50 (cAMP), Gluc-R, second run [1] [nM] | Primary assay EC50 (cAMP), GLP-1R n1 [2] [nM] | Primary assay EC50 (cAMP), GLP-1R n2 [2] [nM] | Primary assay EC50 (cAMP), Mean pM GLP-1R [2] [pM] | Primary assay EC50 (cAMP), GIP-R, first run [3] [nM] | Primary assay EC50 (cAMP), GIP-R, second run [3] [nM] | Binder |
| --- | --- | --- | --- | --- | --- | --- | --- |
| 26 | 26 | 0.0072 | 0.0027 | 4.9 | 26 | 26 | H[Aib]EGS[αMeF]TSDV[αMeS]S[αMeF]LEGEAA[αMeK]E[αMeF]IA[αMeF]VVK([γGlu-γGlu-γGlu-Lauroyl])GG-NH2 (N-terminus assumed; SMILES CCCCCCCCCCCC(=O)N[C@@H](CCC(=O)N[C@@H](CCC(=O)N[C@@H](CCC(=O)NCCCC[C@H](NC(=O)[C@@H](NC(=O)[C@@H](NC(=O)[C@](C)(Cc1ccccc1)NC(=O)[C@H](C)NC(=O)[C@@H](NC(=O)[C@](C)(Cc1ccccc1)NC(=O)[C@H](CCC(=O)O)NC(=O)[C@](C)(CCCCN)NC(=O)[C@H](C)NC(=O)[C@H](C)NC(=O)[C@H](CCC(=O)O)NC(=O)CNC(=O)[C@H](CCC(=O)O)NC(=O)[C@H](CC(C)C)NC(=O)[C@](C)(Cc1ccccc1)NC(=O)[C@H](CO)NC(=O)[C@](C)(CO)NC(=O)[C@@H](NC(=O)[C@H](CC(=O)O)NC(=O)[C@H](CO)NC(=O)[C@@H](NC(=O)[C@](C)(Cc1ccccc1)NC(=O)[C@H](CO)NC(=O)CNC(=O)[C@H](CCC(=O)O)NC(=O)C(C)(C)NC(=O)[C@@H](N)Cc1c[nH]cn1)[C@@H](C)O)C(C)C)[C@@H](C)CC)C(C)C)C(C)C)C(=O)NCC(=O)NCC(N)=O)C(=O)O)C(=O)O)C(=O)O) [SEQ ID NO 166] |
| 27 | 27 | 0.014 | 0.006 | 10.2 | 27 | 27 | H[Aib]EGS[αMeF]TSDV[αMeS]S[αMeF]LEGEAA[αMeK]E[αMeF]IA[αMeF]VVK([γGlu-γGlu-Lauroyl])GG-NH2 (N-terminus assumed; SMILES CCCCCCCCCCCC(=O)N[C@@H](CCC(=O)N[C@@H](CCC(=O)NCCCC[C@H](NC(=O)[C@@H](NC(=O)[C@@H](NC(=O)[C@](C)(Cc1ccccc1)NC(=O)[C@H](C)NC(=O)[C@@H](NC(=O)[C@](C)(Cc1ccccc1)NC(=O)[C@H](CCC(=O)O)NC(=O)[C@](C)(CCCCN)NC(=O)[C@H](C)NC(=O)[C@H](C)NC(=O)[C@H](CCC(=O)O)NC(=O)CNC(=O)[C@H](CCC(=O)O)NC(=O)[C@H](CC(C)C)NC(=O)[C@](C)(Cc1ccccc1)NC(=O)[C@H](CO)NC(=O)[C@](C)(CO)NC(=O)[C@@H](NC(=O)[C@H](CC(=O)O)NC(=O)[C@H](CO)NC(=O)[C@@H](NC(=O)[C@](C)(Cc1ccccc1)NC(=O)[C@H](CO)NC(=O)CNC(=O)[C@H](CCC(=O)O)NC(=O)C(C)(C)NC(=O)[C@@H](N)Cc1c[nH]cn1)[C@@H](C)O)C(C)C)[C@@H](C)CC)C(C)C)C(C)C)C(=O)NCC(=O)NCC(N)=O)C(=O)O)C(=O)O) [SEQ ID NO 165] |
| 29 | 29 | 0.013 | 0.0069 | 10 | 29 | 29 | H[Aib]EGS[αMeF]TSDV[αMeS]S[αMeF]LEGEAA[αMeK]E[αMeF]IA[αMeF]VVK([Ahx-Lauroyl])GG-NH2 (N-terminus assumed; SMILES CCCCCCCCCCCC(=O)NCCCCCC(=O)NCCCC[C@H](NC(=O)[C@@H](NC(=O)[C@@H](NC(=O)[C@](C)(Cc1ccccc1)NC(=O)[C@H](C)NC(=O)[C@@H](NC(=O)[C@](C)(Cc1ccccc1)NC(=O)[C@H](CCC(=O)O)NC(=O)[C@](C)(CCCCN)NC(=O)[C@H](C)NC(=O)[C@H](C)NC(=O)[C@H](CCC(=O)O)NC(=O)CNC(=O)[C@H](CCC(=O)O)NC(=O)[C@H](CC(C)C)NC(=O)[C@](C)(Cc1ccccc1)NC(=O)[C@H](CO)NC(=O)[C@](C)(CO)NC(=O)[C@@H](NC(=O)[C@H](CC(=O)O)NC(=O)[C@H](CO)NC(=O)[C@@H](NC(=O)[C@](C)(Cc1ccccc1)NC(=O)[C@H](CO)NC(=O)CNC(=O)[C@H](CCC(=O)O)NC(=O)C(C)(C)NC(=O)[C@@H](N)Cc1c[nH]cn1)[C@@H](C)O)C(C)C)[C@@H](C)CC)C(C)C)C(C)C)C(=O)NCC(=O)NCC(N)=O) [SEQ ID NO 167] |

Second part, the binder before the results:

| Binder | Primary assay EC50 (cAMP), Gluc-R, first run [1] [nM] | Primary assay EC50 (cAMP), Gluc-R, second run [1] [nM] | Primary assay EC50 (cAMP), GLP-1R n1 [2] [nM] | Primary assay EC50 (cAMP), GLP-1R n2 [2] [nM] | Primary assay EC50 (cAMP), Mean pM GLP-1R [2] [pM] | Primary assay EC50 (cAMP), GIP-R, first run [3] [nM] | Primary assay EC50 (cAMP), GIP-R, second run [3] [nM] |
| --- | --- | --- | --- | --- | --- | --- | --- |
| H[Aib]EGS[αMeF]TSDV[αMeS]S[αMeF]LEGEAAK([PEG2′-PEG2′-PEG2′-Stearoyl])E[αMeF]IA[αMeF]VV[αMeK]GG-NH2 [SEQ ID NO 163] | 25 | 25 | 0.063 | 0.049 | 56 | 25 | 25 |
| H[Aib]EGS[αMeF]TSDV[αMeS]S[αMeF]LEGEAA[αMeK]E[αMeF]IA[αMeF]VVK([γGlu-Lauroyl])GG-NH2 (N-terminus assumed; SMILES CCCCCCCCCCCC(=O)N[C@@H](CCC(=O)NCCCC[C@H](NC(=O)[C@@H](NC(=O)[C@@H](NC(=O)[C@](C)(Cc1ccccc1)NC(=O)[C@H](C)NC(=O)[C@@H](NC(=O)[C@](C)(Cc1ccccc1)NC(=O)[C@H](CCC(=O)O)NC(=O)[C@](C)(CCCCN)NC(=O)[C@H](C)NC(=O)[C@H](C)NC(=O)[C@H](CCC(=O)O)NC(=O)CNC(=O)[C@H](CCC(=O)O)NC(=O)[C@H](CC(C)C)NC(=O)[C@](C)(Cc1ccccc1)NC(=O)[C@H](CO)NC(=O)[C@](C)(CO)NC(=O)[C@@H](NC(=O)[C@H](CC(=O)O)NC(=O)[C@H](CO)NC(=O)[C@@H](NC(=O)[C@](C)(Cc1ccccc1)NC(=O)[C@H](CO)NC(=O)CNC(=O)[C@H](CCC(=O)O)NC(=O)C(C)(C)NC(=O)[C@@H](N)Cc1c[nH]cn1)[C@@H](C)O)C(C)C)[C@@H](C)CC)C(C)C)C(C)C)C(=O)NCC(=O)NCC(N)=O)C(=O)O) [SEQ ID NO 164] | 28 | 28 | 0.022 | 0.0078 | 14.6 | 28 | 28 |
| H[Aib]EGS[αMeF]TSDV[αMeS]S[αMeF]LEGEAAK([PEG2′-PEG2′-Stearoyl])E[αMeF]IA[αMeF]VV[αMeK]GG-NH2 [SEQ ID NO 162] | 26 | 26 | 0.053 | 0.055 | 54 | 26 | 26 |
| H[Aib]EGS[αMeF]TSDV[αMeS]S[αMeF]LEGEAAK([PEG2′-Stearoyl])E[αMeF]IA[αMeF]VV[αMeK]GG-NH2 [SEQ ID NO 161] | 27 | 27 | 0.16 | 0.062 | 112 | 27 | 27 |
| H[Aib]EGS[αMeF]TSDV[αMeS]S[αMeF]LEGEAAK([Ahx-Ahx-Ahx-Stearoyl])E[αMeF]IA[αMeF]VV[αMeK]GG-NH2 (N-terminus assumed; SMILES CCCCCCCCCCCCCCCCCC(=O)NCCCCCC(=O)NCCCCCC(=O)NCCCCCC(=O)NCCCC[C@H](NC(=O)[C@H](C)NC(=O)[C@H](C)NC(=O)[C@H](CCC(=O)O)NC(=O)CNC(=O)[C@H](CCC(=O)O)NC(=O)[C@H](CC(C)C)NC(=O)[C@](C)(Cc1ccccc1)NC(=O)[C@H](CO)NC(=O)[C@](C)(CO)NC(=O)[C@@H](NC(=O)[C@H](CC(=O)O)NC(=O)[C@H](CO)NC(=O)[C@@H](NC(=O)[C@](C)(Cc1ccccc1)NC(=O)[C@H](CO)NC(=O)CNC(=O)[C@H](CCC(=O)O)NC(=O)C(C)(C)NC(=O)[C@@H](N)Cc1c[nH]cn1)[C@@H](C)O)C(C)C)C(=O)N[C@@H](CCC(=O)O)C(=O)N[C@@](C)(Cc1ccccc1)C(=O)N[C@H](C(=O)N[C@@H](C)C(=O)N[C@@](C)(Cc1ccccc1)C(=O)N[C@H](C(=O)N[C@H](C(=O)N[C@@](C)(CCCCN)C(=O)NCC(=O)NCC(N)=O)C(C)C)C(C)C)[C@@H](C)CC) [SEQ ID NO 160] | 26 | 26 | 0.39 | 0.32 | 350 | 26 | 26 |
